{"source": "paper PMC5749160", "about": "“Disruption of an RNA-binding hinge region abolishes LHP1-mediated epigenetic repression”", "binders": {"B1": {"name": "FLC 40-nt ssRNA (ssRNA)", "RNA": "CUCCUCCGGCGAUAAGUACGCCUUUUCCUUACCUGGGUUU"}}, "biological_target": "T1, GST-LHP1 (Arabidopsis thaliana (Col-0 cDNA), UniProt Q946J8 1-445)", "T1 sequence": "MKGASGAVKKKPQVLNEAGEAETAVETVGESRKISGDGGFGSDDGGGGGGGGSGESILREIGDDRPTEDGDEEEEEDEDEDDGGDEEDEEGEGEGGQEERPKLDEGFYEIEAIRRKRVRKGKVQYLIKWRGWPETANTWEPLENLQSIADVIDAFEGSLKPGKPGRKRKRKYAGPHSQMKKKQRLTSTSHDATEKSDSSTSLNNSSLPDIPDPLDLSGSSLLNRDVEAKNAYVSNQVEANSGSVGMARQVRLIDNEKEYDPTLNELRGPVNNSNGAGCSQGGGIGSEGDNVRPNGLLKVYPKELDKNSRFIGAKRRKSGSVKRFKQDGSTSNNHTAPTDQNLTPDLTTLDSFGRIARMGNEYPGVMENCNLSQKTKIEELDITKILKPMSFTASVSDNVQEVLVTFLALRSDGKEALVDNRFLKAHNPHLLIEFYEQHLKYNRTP", "assay": "EMSA; EMSA: 20 mM HEPES-KOH pH 7.5, 100 mM KCl, 0.05% NP-40, 10 nM Cy5 probe (1 uL of 100 nM + 9 uL protein), 30 min room temperature; 1.6% TBE-agarose gel", "conditions": "protein: recombinant; tags: N-terminal GST (pGEX-4T-1); label: 5' Cy5; single-stranded", "data": [{"binder": "B1", "values": [{"measurement": "Kd", "value": "~200", "unit": "nM"}]}]}
